Paper PMC10786891, “Massively parallel profiling of RNA-targeting CRISPR-Cas13d”
Substitutions are numbered along the chain they refer to. In names and notes the source's numbering stands.

T1: EsCas13d, nuclease-dead (Eubacterium siraeum, UniProt B0MS50, R295A;H300A;R849A;H854A)
T1 sequence: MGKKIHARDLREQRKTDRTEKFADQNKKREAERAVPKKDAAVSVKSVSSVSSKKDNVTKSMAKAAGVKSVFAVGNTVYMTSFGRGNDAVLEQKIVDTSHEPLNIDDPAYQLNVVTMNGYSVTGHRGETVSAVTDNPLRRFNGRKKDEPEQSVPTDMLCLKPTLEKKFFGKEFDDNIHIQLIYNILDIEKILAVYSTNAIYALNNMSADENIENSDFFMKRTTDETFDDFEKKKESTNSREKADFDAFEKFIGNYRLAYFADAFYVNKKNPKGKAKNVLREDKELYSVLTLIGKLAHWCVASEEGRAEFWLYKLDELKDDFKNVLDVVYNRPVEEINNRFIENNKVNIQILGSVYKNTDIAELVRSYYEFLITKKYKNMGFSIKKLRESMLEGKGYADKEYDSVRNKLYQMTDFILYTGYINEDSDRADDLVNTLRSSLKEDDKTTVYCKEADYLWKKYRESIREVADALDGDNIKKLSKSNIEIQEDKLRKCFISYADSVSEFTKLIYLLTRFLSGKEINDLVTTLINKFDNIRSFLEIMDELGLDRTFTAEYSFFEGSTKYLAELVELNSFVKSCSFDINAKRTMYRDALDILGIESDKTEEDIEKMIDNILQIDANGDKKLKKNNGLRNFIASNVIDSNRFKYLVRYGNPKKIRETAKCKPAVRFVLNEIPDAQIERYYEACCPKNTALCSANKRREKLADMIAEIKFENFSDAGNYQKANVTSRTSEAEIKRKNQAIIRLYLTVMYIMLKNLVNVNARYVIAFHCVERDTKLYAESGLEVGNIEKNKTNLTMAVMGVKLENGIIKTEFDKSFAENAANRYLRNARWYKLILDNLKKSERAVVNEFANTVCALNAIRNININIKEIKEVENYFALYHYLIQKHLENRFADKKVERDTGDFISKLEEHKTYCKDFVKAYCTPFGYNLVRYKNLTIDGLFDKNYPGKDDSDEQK

B1: target 2 MT 5'PFS AUA 3'PFS ACU (mixed)
RNA 1: CACCCGUGCAAAAUUGCAGGGGUCUAAAACCUUCUCCAAAUUGUUUCAUCCU
RNA 2: GGGAAUGGAUCCACAUCUACGAAUUCAUAAGGAUGAAACAAUUUGGAGAAGACUAGAUCGGAAGAGCACACGU
B2: target 2 MT 5'PFS GAG 3'PFS UGU (mixed)
RNA 1: B1 RNA 1
RNA 2: B1 RNA 2 with A27G, U28A, A29G, A52U, C53G
B3: target 2 MT 5'PFS GAA 3'PFS ACA (mixed)
RNA 1: B1 RNA 1
RNA 2: B1 RNA 2 with A27G, U28A, U54A
B4: target 2 MT 5'PFS UGC 3'PFS CAG (mixed)
RNA 1: B1 RNA 1
RNA 2: B1 RNA 2 with A27U, U28G, A29C, A52C, C53A, U54G
B5: target 2 MT 5'PFS CUA 3'PFS UUU (mixed)
RNA 1: B1 RNA 1
RNA 2: B1 RNA 2 with A27C, A52U, C53U
B6: target 2 MT 5'PFS UGC 3'PFS ACU (mixed)
RNA 1: B1 RNA 1
RNA 2: B1 RNA 2 with A27U, U28G, A29C
B7: target 2 MT 5'PFS GAA 3'PFS ACG (mixed)
RNA 1: B1 RNA 1
RNA 2: B1 RNA 2 with A27G, U28A, U54G
B8: target 2 MT 5'PFS UAC 3'PFS UCA (mixed)
RNA 1: B1 RNA 1
RNA 2: B1 RNA 2 with A27U, U28A, A29C, A52U, U54A
B9: target 2 MT 5'PFS CUA 3'PFS UUA (mixed)
RNA 1: B1 RNA 1
RNA 2: B1 RNA 2 with A27C, A52U, C53U, U54A
B10: target 2 MT 5'PFS UGC 3'PFS CAA (mixed)
RNA 1: B1 RNA 1
RNA 2: B1 RNA 2 with A27U, U28G, A29C, A52C, C53A, U54A
B11: target 2 MT 5'PFS UUU 3'PFS UUA (mixed)
RNA 1: B1 RNA 1
RNA 2: B1 RNA 2 with A27U, A29U, A52U, C53U, U54A
B12: target 2 MT 5'PFS UAU 3'PFS UAG (mixed)
RNA 1: B1 RNA 1
RNA 2: B1 RNA 2 with A27U, U28A, A29U, A52U, C53A, U54G
B13: target 2 MT 5'PFS GGC 3'PFS AUG (mixed)
RNA 1: B1 RNA 1
RNA 2: B1 RNA 2 with A27G, U28G, A29C, C53U, U54G
B14: target 2 MT 5'PFS GGG 3'PFS UGC (mixed)
RNA 1: B1 RNA 1
RNA 2: B1 RNA 2 with A27G, U28G, A29G, A52U, C53G, U54C
B15: target 2 MT 5'PFS UAC 3'PFS UCC (mixed)
RNA 1: B1 RNA 1
RNA 2: B1 RNA 2 with A27U, U28A, A29C, A52U, U54C
B16: target 2 MT 5'PFS GAG 3'PFS UGC (mixed)
RNA 1: B1 RNA 1
RNA 2: B1 RNA 2 with A27G, U28A, A29G, A52U, C53G, U54C
B17: target 2 MT 5'PFS UUU 3'PFS UUU (mixed)
RNA 1: B1 RNA 1
RNA 2: B1 RNA 2 with A27U, A29U, A52U, C53U
B18: target 2 MT 5'PFS UGU 3'PFS ACA (mixed)
RNA 1: B1 RNA 1
RNA 2: B1 RNA 2 with A27U, U28G, A29U, U54A
B19: target 2 MT 5'PFS AUA 3'PFS ACG (mixed)
RNA 1: B1 RNA 1
RNA 2: B1 RNA 2 with U54G
B20: target 2 MT 5'PFS UGU 3'PFS ACU (mixed)
RNA 1: B1 RNA 1
RNA 2: B1 RNA 2 with A27U, U28G, A29U
B21: target 2 MT 5'PFS UGC 3'PFS ACA (mixed)
RNA 1: B1 RNA 1
RNA 2: B1 RNA 2 with A27U, U28G, A29C, U54A
B22: target 2 MT 5'PFS GCC 3'PFS AUU (mixed)
RNA 1: B1 RNA 1
RNA 2: B1 RNA 2 with A27G, U28C, A29C, C53U
B23: target 2 MT 5'PFS GGC 3'PFS AUA (mixed)
RNA 1: B1 RNA 1
RNA 2: B1 RNA 2 with A27G, U28G, A29C, C53U, U54A
B24: target 2 MT 5'PFS CUA 3'PFS UUC (mixed)
RNA 1: B1 RNA 1
RNA 2: B1 RNA 2 with A27C, A52U, C53U, U54C
B25: target 2 MT 5'PFS UGU 3'PFS ACG (mixed)
RNA 1: B1 RNA 1
RNA 2: B1 RNA 2 with A27U, U28G, A29U, U54G
B26: target 2 MT 5'PFS CGC 3'PFS UGU (mixed)
RNA 1: B1 RNA 1
RNA 2: B1 RNA 2 with A27C, U28G, A29C, A52U, C53G
B27: target 2 MT 5'PFS AUA 3'PFS ACA (mixed)
RNA 1: B1 RNA 1
RNA 2: B1 RNA 2 with U54A
B28: target 2 MT 5'PFS AUA 3'PFS ACC (mixed)
RNA 1: B1 RNA 1
RNA 2: B1 RNA 2 with U54C
B29: target 2 MT 5'PFS GGC 3'PFS AUC (mixed)
RNA 1: B1 RNA 1
RNA 2: B1 RNA 2 with A27G, U28G, A29C, C53U, U54C
B30: target 2 MT 5'PFS UGG 3'PFS CUU (mixed)
RNA 1: B1 RNA 1
RNA 2: B1 RNA 2 with A27U, U28G, A29G, A52C, C53U
B31: target 2 MT 5'PFS GAG 3'PFS UGA (mixed)
RNA 1: B1 RNA 1
RNA 2: B1 RNA 2 with A27G, U28A, A29G, A52U, C53G, U54A
B32: target 2 MT 5'PFS GGC 3'PFS AUU (mixed)
RNA 1: B1 RNA 1
RNA 2: B1 RNA 2 with A27G, U28G, A29C, C53U
B33: target 2 MT 5'PFS GAA 3'PFS ACU (mixed)
RNA 1: B1 RNA 1
RNA 2: B1 RNA 2 with A27G, U28A
B34: target 2 MT 5'PFS CGC 3'PFS UAG (mixed)
RNA 1: B1 RNA 1
RNA 2: B1 RNA 2 with A27C, U28G, A29C, A52U, C53A, U54G
B35: target 1 U8C,G12A (mixed)
RNA 1: CACCCGUGCAAAAAUGCAGGGGUCUAAAACUGAGCGGAUAACCUCUCUAUGG
RNA 2: GGGAAUGGAUCCACAUCUACGAAUUCGUACCAUAGAGAGAUUACCCGCUCACCGAGAUCGGAAGAGCACACGU
B36: target 1 G12A,A14U (mixed)
RNA 1: B35 RNA 1
RNA 2: B35 RNA 2 with A38U, C44U
B37: target 1 insC 3' of 8,insC 3' of 3 (mixed)
RNA 1: B35 RNA 1
RNA 2: GGGAAUGGAUCCACAUCUACGAAUUCGUACCAUAGAGAGGUUAUCCCGCUCCACCGAGAUCGGAAGAGCACACGU
B38: target 1 C7G,U11G (mixed)
RNA 1: B35 RNA 1
RNA 2: B35 RNA 2 with A40G, U41G, C44U, C45G

These binders were tested against T1, EsCas13d, nuclease-dead (assay: crRNA (strand 1, pre-loaded); Mg2+; 40 mM Tris-HCl pH 7.5, 150 mM NaCl, 6 mM MgCl2, 1 mM DTT, 0.1% Tween-20, 0.2 mg/ml BSA; 25 C; 10 min per concentration, then washed). Settings: tags: His6-TwinStrep-SUMO cleaved; N-terminal SNAP kept (SNAP-Surface 488); label: 3' end held by stalled T7 RNA polymerase.
B1 showed a Kd of 10.7 ± 1.4 nM.
For B2, the Kd was 13.5 ± 1.7 nM.
B3 gave a Kd of 12 ± 4 nM.
With B4 the Kd was 16.2 ± 2.2 nM.
With B5 the Kd was 2.61 ± 0.28 nM.
B6 gave a Kd of roughly 49 nM.
Binder B7 has a Kd of 11 ± 1.3 nM.
B8 was tested, and the Kd was 6.3 ± 1 nM.
With B9 the Kd was 1.88 ± 0.26 nM.
B10 was tested, and the Kd was 13 ± 2.3 nM.
For B11, the Kd was 9.9 ± 1.3 nM.
Work on B12 yielded a Kd of 34 ± 7 nM.
With B13 the Kd was 15.2 ± 1.7 nM.
For B14, the Kd was 12.8 ± 1.4 nM.
B15 was tested, and the Kd was 15.1 ± 2.8 nM.
B16 showed a Kd of 7.1 ± 0.7 nM.
Binder B17 has a Kd of 20 ± 4 nM.
In the case of B18, the Kd is reported as 14.9 ± 3.5 nM.
Binder B19 has a Kd of 14 ± 5 nM.
With B20 the Kd was 28 ± 12 nM.
With B21 the Kd was 17 ± 4 nM.
With B22 the Kd was 10.7 ± 1.3 nM.
B23 was tested, and the Kd was 10.8 ± 1 nM.
B24 was tested, and the Kd was 3.1 ± 0.9 nM.
For B25, the Kd was 15 ± 1.9 nM.
B26 gave a Kd of 5.6 ± 0.5 nM.
For B27, the Kd was 6.9 ± 1.6 nM.
B28 was tested, and the Kd was 10.7 ± 1.8 nM.
For B29, the Kd was 13.2 ± 1.1 nM.
B30 was tested, and the Kd was 7 ± 0.7 nM.
For B31, the Kd was 9.5 ± 1.8 nM.
For B32, the Kd was 12.4 ± 1.3 nM.
B33 gave a Kd of 13.3 ± 2.6 nM.
For B34, the Kd was 3.3 ± 0.5 nM.
For B35, the Kd was 12.5 ± 1 nM.
Work on B36 yielded a Kd of 26.3 ± 1.7 nM.
With B37 the Kd was 13.3 ± 0.7 nM.
In the case of B38, the Kd is reported as 24.7 ± 1.5 nM.
